Molecular target: HIV-1 tat protein (HIV-1, UniProt P04608)
Assay: phage binding to tat coated magnetic beads; TR5 also selected in 4 separate screening experiments

B1: phage TR5 (anti-tat Fv, synthetic single chain antibody displayed on FUSE5 phage) (scFv)
scFv: EVQLVESGRGLVQPGGSLRLSCAASGFTFSHFLVAWVRQAPGKGLEWVATYSMISRARVLDGSFNGRYTISRDDSKNTLYLQMNSLRAEDTAVYYCARIGSTHTIPRLSQYGGQGTLVTVSSGGGGSGGGGSGGGGSDIQMTQSPSSLSASVGDRVTITCKLRGPQPHAITWYQQKPGKAPKLLIYYDGQTLVGVPSRFSGSGSGTDFTPTISSLEPEDFATYYCTPTHKIDSPFGQGTKVEIKRT
- binding result: binds
